In patent US20100021456A1:

How the values were obtained:
[1] = target: IL-17RC receptor (IL-17 receptor C) on RA synoviocytes (human) (UniProt Q8NAC3); experiment: cell-based or functional assay
[2] = target: IL-17RA receptor (IL-17 receptor A) on RA synoviocytes (human) (UniProt Q96F46); experiment: cell-based or functional assay

Chain of UniProt Q8NAC3 (Q8NAC3 21-791): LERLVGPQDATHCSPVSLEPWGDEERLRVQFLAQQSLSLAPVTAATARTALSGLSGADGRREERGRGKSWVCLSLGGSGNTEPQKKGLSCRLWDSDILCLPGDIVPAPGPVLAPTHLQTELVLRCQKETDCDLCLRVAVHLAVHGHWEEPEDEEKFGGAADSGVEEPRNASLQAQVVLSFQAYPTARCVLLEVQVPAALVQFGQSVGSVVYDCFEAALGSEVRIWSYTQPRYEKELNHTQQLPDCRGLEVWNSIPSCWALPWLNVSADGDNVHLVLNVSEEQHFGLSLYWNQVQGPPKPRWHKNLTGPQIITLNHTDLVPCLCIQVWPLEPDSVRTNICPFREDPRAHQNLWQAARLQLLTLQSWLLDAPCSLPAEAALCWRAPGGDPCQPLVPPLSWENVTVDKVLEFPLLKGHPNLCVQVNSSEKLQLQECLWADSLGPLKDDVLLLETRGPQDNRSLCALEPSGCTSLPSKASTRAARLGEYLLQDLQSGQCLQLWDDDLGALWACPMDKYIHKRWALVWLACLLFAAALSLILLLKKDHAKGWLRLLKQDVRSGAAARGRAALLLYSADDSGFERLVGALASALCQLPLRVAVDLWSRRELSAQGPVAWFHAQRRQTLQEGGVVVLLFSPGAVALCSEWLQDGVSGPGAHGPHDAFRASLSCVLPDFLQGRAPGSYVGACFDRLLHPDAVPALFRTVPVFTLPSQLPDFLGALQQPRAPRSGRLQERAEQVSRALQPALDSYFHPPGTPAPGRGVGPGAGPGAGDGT

How did the reduction in secreted IL-6 induced by IL-17A in the presence of TNF-α, after simultaneous IL-17RA and IL-17RC iRNAs [1] turn out when “recombinant human IL-17A (R&D Systems) (from UniProt Q16552 24-155) (ligand)” was run?
The reduction in secreted IL-6 induced by IL-17A in the presence of TNF-α, after simultaneous IL-17RA and IL-17RC iRNAs was 20%.

And the reduction in secreted IL-6 induced by IL-17A in the presence of TNF-α, after simultaneous IL-17RA and IL-17RC iRNAs [2]?
Its reduction in secreted IL-6 induced by IL-17A in the presence of TNF-α, after simultaneous IL-17RA and IL-17RC iRNAs is 20%.
